Source: the RNAGym collection of RNA variant scans (doi:10.1093/nar/gkz1192)

B1: CPEB3 Ribozyme (parent)
chain: UAACAGGGGGCCACAGCAGAAGCGUUCACGUCGCAGCCCCUGUCAGAUUCUGGUGAAUCUGCGAAUUCUGCUGUAUAUCUC

Variants of: B1
Assay: self-cleavage, relative activity (ratio to wild type); higher = more cleavage; in vitro, sequencing
Method in brief: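 Barcoded CPEB3 ribozyme mutants, produced by rounds of error-prone PCR, self-cleaved while being transcribed with T7 RNA polymerase for 5 hours at 37°C and during a subsequent 15 min DNase I step before EDTA was added. Sequencing of template-switched cDNA on Illumina gave cleaved and total reads, and DNA sequencing assigned barcodes to variants. Each variant's relative activity is its cleaved/total read fraction divided by the unmutated ribozyme's fraction, averaged across three batches. A variant needed a minimum of 5 reads.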

In order of falling self-cleavage:
1. U54C U74G  1.39
2. U54C G73C  1.33
3. U54C C81G  1.3
4. U54A U74G  1.3
5. U54A U74C  1.28
6. U54A G73U  1.27
7. U54C G73A  1.26
8. U54A G73A  1.25
9. U54C U74A  1.25
10. U54A A77U  1.23
11. U54A C79G  1.23
12. U54A C79A  1.23
13. U54C G73U  1.22
14. U54A U74A  1.22
15. U54A A75U  1.21
16. U54A U80A  1.21
17. U54C U74C  1.21
18. U54A C81U  1.2
19. U54C A75U  1.2
20. U54A A75C  1.19
21. U54A U78A  1.19
22. U54C C79A  1.18
23. U54G C79A  1.18
24. U54C C81U  1.17
25. U54G G73A  1.17
26. U54C U80A  1.17
27. U54C U76A  1.17
28. U54A U72C  1.17
29. U54G U72C  1.16
30. U54A C79U  1.16
31. U54A G55U  1.15
32. U54A U80C  1.14
33. U54A U76A  1.13
34. U54C G63U  1.13
35. U54A A77C  1.12
36. U54C C68U  1.09
37. U54C U80C  1.09
38. U54C U72C  1.08
39. U54C U78G  1.07
40. U54C A77U  1.07
41. U54C A77G  1.07
42. U54A A77G  1.06
43. U54C U76C  1.06
44. U54A U78C  1.05
45. U54A U76C  1.04
46. U54G G63U  1.03
47. U54A C68U  1.03
48. U54C U78A  1.03
49. U54C  1.02
50. U54A U72A  1.02
51. U54C G63C  1.01
52. U54A A75G  1
53. U54G U78A  1
54. U54G U76C  0.98
55. U54C U76G  0.98
56. U54C U78C  0.97
57. U54G A75U  0.96
58. G55A A77G  0.96
59. U54A G63A  0.95
60. U54G U72G  0.93
61. U54G U74C  0.92
62. U54A U69G  0.92
63. U54G G63A  0.91
64. U54C A75G  0.88
65. U54C U72G  0.87
66. U54C A77C  0.87
67. U54A U72G  0.87
68. U54A U69A  0.86
69. U54C A64G  0.86
70. G55A A56U  0.84
71. G55A  0.84
72. G55A A56G  0.8
73. U54A G55A  0.8
74. U54C G55U  0.78
75. U54G  0.77
76. U54A G61U  0.76
77. U54G A77G  0.74
78. U54C G63A  0.73
79. U54A G61A  0.73
80. U54C C71U  0.72
81. U54A U58C  0.69
82. U54G U78C  0.68
83. U54G C68U  0.68
84. U54C C59U  0.68
85. U54A U60A  0.68
86. U54A U67A  0.67
87. U54A U60C  0.67
88. U54G U80C  0.67
89. U54C A57G  0.66
90. U54A U66G  0.65
91. U54C G61A  0.65
92. U54A U60G  0.65
93. U54C A56G  0.64
94. U54A U69C  0.63
95. U54C U72A  0.62
96. U54C G55A  0.62
97. U54G U69A  0.62
98. G55A A64G  0.61
99. U54G A64G  0.6
100. U54G U67A  0.57
101. U54C U69A  0.57
102. U54C A57U  0.56
103. G55A A57U  0.54
104. U54C A56U  0.52
105. U54C U69C  0.52
106. U54C U66A  0.52
107. U54C U60G  0.5
108. U54C A65G  0.49
109. U54A U66C  0.49
110. U54C U58C  0.48
111. U54C U67A  0.48
112. U54A U67C  0.46
113. U54G A56G  0.46
114. G55A A57G  0.46
115. U54C A64C  0.46
116. U54A U58A  0.45
117. U54G U60C  0.44
118. U54A C68A  0.44
119. U54G A57G  0.43
120. U54C C68A  0.43
121. U54C U69G  0.43
122. U54C G70A  0.43
123. U54G U60G  0.42
124. U54G C71A  0.42
125. U54A U58G  0.42
126. U54A C71A  0.42
127. U54C U60A  0.42
128. U54A C62G  0.42
129. U54G U72A  0.41
130. G55A A75G  0.4
131. U54C A65C  0.4
132. U54G U58C  0.39
133. U54C C71A  0.39
134. U54A G70C  0.39
135. G55A G61A  0.39
136. U54C U66G  0.39
137. U54C U60C  0.39
138. U54C A56C  0.38
139. U54G U60A  0.37
140. U54C U66C  0.37
141. U54G U69C  0.37
142. U54A U67G  0.36
143. U54C A64U  0.36
144. U54A C59G  0.35
145. U54C U58A  0.33
146. U54G U67C  0.32
147. U54C A65U  0.32
148. U54A C62A  0.32
149. U54G A56U  0.31
150. U54G A65G  0.3
151. U54C G61C  0.3
152. U54C C59A  0.3
153. U54C C68G  0.29
154. U54G A64U  0.28
155. U54G U66C  0.28
156. G55A A65U  0.27
157. U54C U67C  0.26
158. U54G A57U  0.25
159. G55A A64U  0.25
160. U54A C62U  0.25
161. U54C A57C  0.23
162. U54G U58A  0.2
163. U54G C62U  0.19
164. U54C C62U  0.18
165. U54G U67G  0.14
166. U54C C62G  0.13
167. U54C C62A  0.13
